Assay results reported in patent publication US11827699 (dated 2023).
Substitutions are numbered along the chain they refer to. Where two headings read alike, the source gives them in different places. Blank lines part the entries; values can stand above or below the binder they belong to.

Columns and labels:
Experiment in all cases: SPR
human FcγRIIa R131 [1] = biological target: T1, human FcγRIIa R131 (human, UniProt P12318)
T1 chain: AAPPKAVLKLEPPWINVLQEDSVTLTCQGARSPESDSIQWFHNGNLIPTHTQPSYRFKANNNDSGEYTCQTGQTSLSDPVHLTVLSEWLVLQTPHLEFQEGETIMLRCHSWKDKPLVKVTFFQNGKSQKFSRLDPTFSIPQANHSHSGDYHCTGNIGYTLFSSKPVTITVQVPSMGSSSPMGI

human FcγRIa = biological target: T2, human FcγRIa (human, UniProt P12314)
T2 chain: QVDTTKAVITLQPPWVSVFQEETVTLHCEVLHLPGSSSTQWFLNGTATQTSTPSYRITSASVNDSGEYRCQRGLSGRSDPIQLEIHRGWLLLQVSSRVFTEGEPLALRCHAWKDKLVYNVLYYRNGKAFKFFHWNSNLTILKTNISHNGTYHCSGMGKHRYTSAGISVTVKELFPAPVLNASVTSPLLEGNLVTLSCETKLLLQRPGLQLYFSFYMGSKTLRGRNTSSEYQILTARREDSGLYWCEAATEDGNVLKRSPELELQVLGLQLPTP

human FcγRIIb = biological target: T3, human FcγRIIb (human, UniProt P31994)
T3 chain: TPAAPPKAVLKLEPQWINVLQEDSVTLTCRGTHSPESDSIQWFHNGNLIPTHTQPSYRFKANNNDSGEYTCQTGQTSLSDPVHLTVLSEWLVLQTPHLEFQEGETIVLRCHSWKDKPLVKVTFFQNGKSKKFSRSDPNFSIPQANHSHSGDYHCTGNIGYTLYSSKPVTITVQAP

human FcγRIIa R131 [2] = biological target: T1, human FcγRIIa R131

Kd (human FcγRIIa R131 [1]): 600 nM
B1: IL6R-BP469 (antibody)
chain 1: QVQLQESGPGLVKPSETLSLTCAVSGHSISHDHAWSWVRQPPGEGLEWIGFISYSGITNYNPSLQGRVTISRDNSKNTLYLQMNSLRAEDTAVYYCARSLARTTAMDYWGEGTLVTVSSASTKGPSVFPLAPSSKSTSGGTAALGCLVKDYFPEPVTVSWNSGALTSGVHTFPAVLQSSGLYSLSSVVTVPSSSLGTQTYICNVNHKPSNTKVDKKVEPKSCDKTHTCPPCPAPDLLGDDSVFLFPPKPKDTLMISRTPEVTCVVVDVSDEDGEVKFNWYVDGVEVHNAKTKPREEQDNSTYRVVSVLTVLHQDWLNGKEYKCKVSNKALPRPISKTISKAKGQPREPQVYTLPPSRDELTKNQVSLTCLVKGFYPSDIAVEWESNGQPENNYKTTPPVLDSDGSFFLYSKLTVDKSRWQQGNVFSCSVMHEALHNHYTQESLSLSP
chain 2: not shown

Kd (human FcγRIa): 3 nM
B2: IL6R-BP384 (antibody)
chain 1: B1 chain 1 with S335E, K336R
chain 2: not shown

Kd (human FcγRIIb): 40 nM
B3: IL6R-BP468 (antibody)
chain 1: B1 chain 1 with S335E, K336T
chain 2: not shown

Kd (human FcγRIIa R131 [2]): 600 nM
B4: IL6R-BP223 (antibody)
chain 1: B1 chain 1 with D235E, L236Y, D298Y, K328A, S335E
chain 2: not shown
